# Data: paper PMC9746415 (Human Vaccines & Immunotherapeutics, 2022)
# Type: physicochemical
# Conditions: pH 7.4
substance,measurement,value
In-house rituximab,SEC-HPLC % mAb Monomer,99.2%
